The nature of this series: soluble on expression in E. coli; label from the status in PepcDB or PDB records.
Turning to “MSLYPEKRDGFSRTGKFEVEGRTVQTPAILEVGEIPEWDFGLAPTSLKFISEELYSRLRPINEEVEILTSLHLLSPRQLVQVFEDLSKEGVSPKPLYAASSALPSNVSLLIYLGADLVDNVLAIAKAYSGIYFLGEVEVEISKLRRLPCNCIHCRNRVVDEVENLLETTAKHNTEMLRMEVEKCRRLILNEELRNYVEGKVKLNPEFTAALRLSDSLRNHSTFPRFRKSRCNFSALESSSRFEVRYFFERALECYKPFSDTVLLLPCTARKPYLTSRTHRALRSKVKVNVNEIIISSPLVVPREFELLYPAVNYDTPVTGHWSEEEVSFVAGWLKRFIEKGGFRKVVAHVTGGYRKVVERVEDEVEAEVVYTAEKDVLSDESIERLKQEIESKGKVDLYRRILEHMLSYQFGITWSGKVAGRYPELELLEGKKRLARVDRIYGMLDIYEKIAAYLLEKNIYTVEIGDFEVKGTIFAGGVLRADEKIRPNDVVVFHNSRIFGVGLAAMSGKEMAGSEKGIAINVKRKFSEGHHHHHH”, the “soluble on expression in E. coli” value is reported as “soluble”.

For the sequence “MFFNKSLQQENQRLKQELYSLQQIQQSLDEEMLRLTLDAKGNVTSANQKFLQQLSLSDKDILAKHISDLVPSNVRNTDHFYRMKQSVQAKAFWNGAFQITKGDGEEAWLRVVIQPVRNASDQVESFFVFASELTRTITTSREYEDMLNALSRSMAVIEFTLDGTVLKANDNFLSTMGYKHEQIVGKHHRIFCLPEEANSSAYHDFWKRLASGQFVTDRFKRVDQHGSVVWLEASYNPIHNDRGELYKVVKFATNITQQVLQ”, the “soluble on expression in E. coli” value is “not soluble”.

Regarding “LDSANQQASNESIEVRGKIKLGLLPETYEHLQPILFEFQDQYPQVELDIRNINNGFIDMFQQGLDIALHGGMLFDSDIVARKILTLDRCVVASPNYLQTHGTPATLEELSDHQCICFRWPNGNVDNLWHFQEQNVALKPKLISNNIGFIKSSTVLDRGISYIPKLLVKNELESGALVQVLSQYAVTEETGWLLYPQPKTLNQASRLLIEHLCNKIPKLL”, the “soluble on expression in E. coli” value is “soluble”.

Take “AASSLDELVALCKRRGFIFQSSEIYGGLQGVYDYGPLGVELKNNLKQAWWRRNVYERDDMEGLDASVLTHRLVLHYSGHEATFADPMVDNAKARYWTPPRYFNMMFQDLRGPRGGRGLLAYLRPETAQGIFVNFKNVLDATSRKLGFGIAQIGKAFRNEITPRNFIFRVREFEQMEIEYFVRPGEDEYWHRYWVEERLKWWQEMGLSRENLVPYQQPPESSAHYAKATVDILYRFPHGSLELEGIAQRTDFDLGSHTKDQEALGITARVLRNEHSTQRLAYRDPETGKWFVPYVIEPSAGVDRGVLALLAEAFTREELPNGEERIVLKLKPQLAPIKVAVIPLVKNRPEITEYAKRLKARLLALGLGRVLYEDTGNIGKAYRRHDEVGTPFAVTVDYDTIGQSKDGTTRLKDTVTVRDRDTMEQIRLHVDELEGFLRERLRW”: the “soluble on expression in E. coli” value is “soluble”.

For the sequence “MAHHHHHHMSAPKEGNRGESKEKFWLYAFRDHLANLRAFSNCIETADVNGVGDYQLLVADGSKRIKVYAGTSLQRELPLFGVPSAITSFFMDDADAFGKPVVAVATGPYIFMYRSNKPLYRFMVPPVPLNPQESAIWQDLATEALTVEEAVKQLESLLDSGVETSSRTLELLLETPEERGEFVSRLRSVPLIQMDVVCCLTSIPLNSLDEGGRSVLVIGTEAGFLYVLKHNAAEVALKVVLPRTPVFLIAAGCFEVDYRMVVACRDGRVYSIKQGNLQNAVIQPDAQPCAIARYNNLIAVATTANTLAYYNLKGKKQQSVFLPCSISGLSTINDTVTGEARGLVVALSNGEIRVYVGTQLHHVSLAYGTVTAMKFGRYGRSDGALVLVLQNGSLVVELLHRGVNLSCSKTVETGPPPQQDIPIPIPHLSSVFATQSSRERKHGVEMYQLFQYDLSQLRLTTAKAYLDMIANGSVPSELGNVTQENEGVAEPSLRLNAVVQGLGPVFKVKVQLQNVGEAPLHAVRVVFCLSEDNVYCMPQQIFLIPTLLPSVPLSCAAFVTTSEGEAKGNAILVVATGPKSRTPLARTLVDLPEVEAMAEV”, the “soluble on expression in E. coli” value was “not soluble”.

With “MSLDVSLKLKGIDGALEDNVKAYLSSIPEKDYSTSLRFQARLDQSITEALNALGYYHAKISYSISEGNDELIVNIHKGLPVKIKVMDVVISGEAKEDEEFTNLIAKSPLKVGRILNQGEYDSLKSGIRNLALQRGYFNGDFKLNKLEVIPELNEANVRLHYDSGIRYHFGPVEITGSQIWENRVESMRPFEIGEPYLVSDVGEYNQNLSNTDWFSSVFVEPDLSKLEDGRELPIKVSLAPAAKNQIETGIGYSTDTGVRGTLKWKKPWVSARGHSFNTALSLSKPEQTITAGYKIPLDDVLREYYQLQFGLKHLDNRDTESLESNLAVERHWLTDGGWHKTVYVRHLYENFSQGLQDDGVQFVLPGATFSRTRVRGGSMPMWGDKQSVTVEYGDPALLSETRVLRLLGRSSWIRGIGENHRGLFRLEGGANITEEFEKLSPSLRFFAGGDNNIRGYGYESISPVDESGALTGAKYILSSTLEYQYRVYGNWWAATFYDIGDAFNDTPEWKSGAGVGIRWASPVGPVSFDFAWGLDEKPNNEFRIHFSLGPELEGHHHHHH”, the “soluble on expression in E. coli” value is recorded as “not soluble”.

On to “MGSDKIHHHHHHATVTDSASTDIGIGFSGHGPGTTPGPLDIQWAPIGLDFSNSNMVNTTAVQAFPETTGTNKYVVVSEKRSNEPTREWSLTAQLSDLTNAGGSETLTGAGLKFDAAVKGYTGTNTPESPGSIVDKGARTATVNASSQSVTAGAAAVPVMKDAGTGGASFLGSTAMEMSNVKLEVPANAAKINQQYSGTLTWSLNDTI”, for which the “soluble on expression in E. coli” value is “not soluble”.

Regarding “MEPWKQCAQWLIHCKVLPTNHRVTWDSAQVFDLAQTLRDGVLLCQLLNNLRAHSINLKEINLRPQMSQFLCLKNIRTFLTACCETFGMRKSELFEAFDLFDVRDFGKVIETLSRLSRTPIALATGIRPFPTEESINDEDIYKGLPDLIDETLVEDEEDLYDCVYGEDEGGEVYEDLMKAEEAHQPKCPENDIRSCCLAEIKQTEEKYTETLESIEKYFMAPLKRFLTAAEFDSVFINIPELVKLHRNLMQEIHDSIVNKNDQNLYQVFINYKERLVIYGQYCSGVESAISSLDYISKSKEDVKLKLEECSKRANNGKFTLRDLLVVPMQRVLKYHLLLQELVKHTTDPTEKANLKLALDAMKDLAQYVNEVKRDNETLREIKQFQLSIENLNQPVLLFGRPQGDGEIRITTLDKHTKQERHIFLFDLAVIVCKRKGDNYEMKEIIDLQQYKIANNPTTDKENKKWSYGFYLIHTQGQNGLEFYCKTKDLKKKWLEQFEMALSNIRPDYADSNFHDFKMHTFTRVTSCKVCQMLLRGTFYQGYLCFKCGARAHKECLGRVDNCGRVNSGEQGTLKLPEKRTNGLRRTPKQVDPGLPKMQVIRNYSGTPPPALHEGPPLQLQAGDTVELLKGDAHSLFWQGRNLASGEVGFFPSDAVKPCPCVPKPVDYSCQPWYAGAMERLQAETELINRVNSTYLVRHRTKESGEYAISIKYNNEAKHIKILTRDGFFHIAENRKFKSLMELVEYYKHHSLKEGFRTLDTTLQFPYKEPEHSAGQRGNRAGNSLLSPKVLGIAIARYDFCARDMRELSLLKGDVVKIYTKMSANGWWRGEVNGRVGWFPSTYVEEDE”, the “soluble on expression in E. coli” value was “soluble”.

Consider “MGSDKIHHHHHHMQFGAKPLFENISVKFGGGNRYGLIGANGCGKSTFMKILTGDLEPSSGNVSLDVNERMGKLNQDQFAYEKFSVVDTVIMGHRELWKVKQERDRIYSLPEMTEEDGIKVSELEMEFAEMDGYTAESRAGDLLLGVGIGTEQHFGLMSQIAPGFKLRVLLAQALFSDPDLLLLDEPTNNLDIDTIRWLQDMLNQRNSTMVIISHDRYFLNSVCTHMADLDYGELRVYPGNYDEYMMAATQARERLQSDNAKKKAQIAELQTFVARFSANASKAKQATSRAKQIDKIKLDDIKASSRVNPFIRFEQEKKLFRNALIVENLAKGYDKPLFSNLNLMVEVGERIAILGENGVGKTTLMRTLVHDIPQDEGTIQWSENANIGYYAQDHEADFANDMTLFDWMSQWRKPEDDDQSVRAILGRMLFGSDDIKKSVTVLSGGEKGRMYFGKLIMQKANILMLDEPTNHMDMESIESLNNALEMYEGTLMFVSHDRAFVSSLATRILEVTANGVNDFKGTYDEFLRSKGIDA”, for which the “soluble on expression in E. coli” value is listed as “not soluble”.

As for “MAHHHHHHMEDAYAGLCSQSVFEPKMDFTLCINKSIKLFLKDINISKYDKNNVDNKKDVNTSDTKVIETSNDQNQNNQNDQNDQQSDILNNQHLLKENEAFLNGYLYFSRIGHNINLLLNELSSIKKDFRFLNKETRKKIKKFKQVKNKNIIYKDLLQDIKEKRKRKEIYEKLSIEIKKLDEVKKVQEKQKIEKDEINNLEHKILNIENIIKSNNDHIQETINQINKIVSENIQI”, the “soluble on expression in E. coli” value is listed as “not soluble”.

The values above are taken from the DeepSol protein solubility set.
